Reference: a protein production outcome set (Wang et al. 2014)

Assay: label from the status in PepcDB records
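Also: failed if final PepcDB status was selected cloned or expressed and not failed if soluble or beyond.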

Row | Sequence | protein production
1 | MKVQITNSRTEEILKVQANNENDEVSKATPGEVEESLRLIGDLKFFLATAPVNWQENQIIRRYYLNSGQGFVSCVFWNNLYYITGTDIVKCCLYRMQKFGREVVQKKKFEEGIFSDLRNLKCGIDATLEQPKSEFLSFLFRNMCLKTQKKQKVFFWFSVAHDKLFADALERDLKRESLNQPSTTKPVNEPALSFSYDSSSDKPLYDQLLQHLDSRRPSSTTKSDNSPPKLESENFKDNELVTVTNQPLLGVGLMDDDAPESPSQINDFIPQKLIIEPNTLELNGLTEETPHDLPKNTAKGRDEEDFPLDYFPVSVEYPTEENAFDPFPPQAFTPAAPSMPISYDNVNERDSMPVNSLLNRYPYQLSVAPTFPVPPSSSRQHFMTNRDFYSSNNNKEKLVSPSDPTSYMKYDEPVMDFDESRPNENCTNAKSHNSGQQTKQHQLYSNNFQQSYPNGMVPGYYPKMPYNPMGGDPLLDQAFYGADDFFFPPEGCDNNMLYPQTATSWNVLPPQAMQPAPTYVGRPYTPNYRSTPGSAMFPYMQSSNSMQWNTAVSPYSSRAPSTTAKNYPPSTFYSQNINQYPRRRTVGMKSSQGNVPTGNKQSVGKSAKISKPLHIKTSAYQKQYKINLETKARPSAGDEDSAHPDKNKEISMPTPDSNTLVVQSEEGGAHSLEVDTNRRSDKNLPDAT | failed
2 | MYELYTLLAEYYDTIYRRRIERVKAEIDFVEEIFKEDAKREVRRVLDLACGTGIPTLELAERGYEVVGLDLHEEMLRVARRKAKERNLKIEFLQGDVLEIAFKNEFDAVTMFFSTIMYFDEEDLRKLFSKVAEALKPGGVFITDFPCWFYGGRDGPVVWNEQKGEEKLVIMDWREVEPAVQKLRFKRLVQILRPNGEVKAFLVDDELNIYTPREVRLLAEKYFEKVKIYGNLKRELSPNDMRYWIVGIAKSF | not failed
3 | MPINQPSGQIKLTNVSLVRLKKARKRFEVACYQNKVQDYRKGIEKDLDEVLQIHQVFMNVSKGLVANKEDLQKCFGTTNVDDVIEEIMHKGEIQLSEKERQLMLNKVNNEMLTIVSAKCINPVSKKRYPPTMIHKALQELKFSPVINKPAKLQALEAIKLLVSKQIIPIVRAKMKVKVAISEPSRQPELIEKISKLIASSPGESTKPELDPWTCTGLIDPVNYRDLMTLCDKKGTVQVLDMAVIDNTTHN | failed
4 | LETERNRYKWLFENAVHGIFQASLQAGMRAANPALARMLGYQDPQEVLFSLADLAGNLFVGGAGELAAIGEQLQNQRSLLGYETQLRRKDGSSIDVLMNLLLKPDQDGLVEGFVADITERKLAQQHLEQLNDQLEQR | failed
5 | DDPEQFEVIKQQKEIIEHGIELFNKKPKRGIQFLQEQGMLGTSVEDIAQFLHQEERLDSTQVGDFLGDSARFNKEVMYAYVDQLDFCEKEFVSALRTFLEGFRLPGEAQKIDRLMEKFAARYIECNQGQTLFASADTAYVLAYSIIMLTTDLHSPQVKNKMTKEQYIKMNRGINDSKD | failed
6 | MAEGKAMSEFLPFSRPAMGVEELAAVKEVLESGWITTGPKNQALEQAFCQLTGNQHAIAVSSATAGMHITLMALKIGKGDEVITPSLTWVSTLNMISLLGATPVMVDVDRDTLMVTPEAIESAITPRTKAIIPVHYAGAPADIDAIRAIGERYGIAVIEDAAHAVGTYYKGRHIGAKGTAIFSFHAIKNITCAEGGLIVTDNENLARQLRMLKFHGLGVDAYDRQTWGRAPQAEVLTPGYKYNLTDINAAIALTQLVKLEHLNTRRREIAQQYQQALAALPFQPLSLPAWPHVHAWHLFIIRVDEQRCGISRDALMEALKERGIGTGLHFRAAHTQKYYRERFPTLSLPNTEWNSERICSLPLFPDMTTADADHVITALQQLAGQ | failed
